In the supplement of paper PMC10567573:
± gives the standard deviation.

Assay: protein stability index of a GFP-peptide fusion (GPS, HEK-293T) (PSI 1-6); higher = more stable
[1] = treatment: DMSO, c terminus: a fixed tail appended
[2] = treatment: MLN4924 1 uM, 8 h, c terminus: a fixed tail appended
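Also: 24-mer peptide tiles fused after GFP, lentivirally expressed, FACS-sorted into six equal bins by GFP/DsRed ratio, decoded by Illumina sequencing, PSI is the read-weighted mean bin number.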

Sequence | protein stability index [1] | protein stability index [2] | protein stability index (treatment: DMSO, c terminus: native) | protein stability index (treatment: MLN4924 1 uM, 8 h, c terminus: native)
KNHEEEMKEFSNQVVGQVNVEMDA [KRT13] | 5.54 ± 0.079 | 5.44 ± 0.31 |  | 
KNSMENGRPPDPADWAVMDVVNYF [SAMD13] | 3.3 ± 0.26 | 3.28 ± 0.2 |  | 
KNSTMVNSEDIFLLLCLKVDNHFN [TRIM43] | 2.98 ± 0.57 | 2.84 ± 0.51 |  | 
KPPKPPDKPLMPYMRYSRKVWDQV [SMARCE1] | 2.08 ± 0.33 | 2.53 ± 0.36 |  | 
KPPPRKHTRSWAVLKLLLLLLLFG [LRRC59] | 2.09 ± 0.3 | 2.02 ± 0.26 |  | 
KPPQNPVDTYDVQVTAPGAPPLQA [TNXB] | 4.84 ± 0.35 | 4.46 ± 0.3 |  | 
KQRLMENTEDWRPRPGTGQSRSFR [PDLIM7] | 4.18 ± 0.2 | 4.418 ± 0.008 |  | 
KQTREQLHSISDSVLFLQEFGALM [TRIM29] | 2.44 ± 0.52 | 2.36 ± 0.34 |  | 
KREREVDEDSEPEREVRAKNGRVD [USP39] | 5.46 ± 0.081 | 5.69 ± 0.12 |  | 
KRITAHEALKHPWVCQRSTVASMM [CAMK2B] | 2.5 ± 0.39 | 2.51 ± 0.26 |  | 
KRSWEEHVTHWMGQPFNSDDRNTA [DLC1] | 3.12 ± 0.47 | 3.52 ± 0.52 |  | 
KRYDGLKYDVKKVEEVVYDLSIRG [TSN] | 3.33 ± 0.27 | 3.29 ± 0.094 |  | 
KRYGLGAHRGRLNIQAGINENDFY [CPXM2] | 2.45 ± 0.44 | 2.61 ± 0.28 |  | 
KSHVYMAWNIPMSNPGVDFGDVSE [GALNT9] | 2.65 ± 0.26 | 2.79 ± 0.15 |  | 
KSKAYTVVGTPCYISPELCEGKPY [NEK8] | 2.83 ± 0.084 | 3.03 ± 0.27 |  | 
KSKGYGFVSFFNKWDAENAIQQMG [TIA1] | 2.11 ± 0.76 | 1.59 ± 0.3 |  | 
KSVQCGTWTKHAEGGIFTSPNYPS [NETO1] | 2.88 ± 0.19 | 2.89 ± 0.24 |  | 
KTHSQELMKESLQTGDLLSTFHTI [PLAGL1] | 3.49 ± 0.27 | 3.64 ± 0.23 |  | 
KVEKMLISSIKEKYPSHSFIGEES [IMPA1] | 3.26 ± 0.2 | 3.17 ± 0.14 |  | 
KVFLHERELWLKFHEVGTEMIITK [TBX5] | 2.12 ± 0.19 | 2.33 ± 0.44 |  | 
KVLGELNILPNTQKVTCFYQPAPY [TENT5D] | 2.5 ± 0.23 | 2.16 ± 0.3 |  | 
KVLQGGEQEIQFEDFTNTLRELGH [PKD2L1] | 3.08 ± 0.35 | 3.31 ± 0.23 |  | 
KVVEAHKIVLCAVSHVFMLLFNVK [RHOBTB3] | 2.81 ± 0.64 | 3.07 ± 0.46 |  | 

Sequence | protein stability index [1] | protein stability index [2] | protein stability index (treatment: DMSO, c terminus: native) | protein stability index (treatment: MLN4924 1 uM, 8 h, c terminus: native)
KVWSLTGQVAEDRFPESHLPIQTP [TLE6] | 3.58 ± 0.21 | 3.47 ± 0.39 |  | 
KVYDDMAFRYLSWILFPLLGCYAV [CLPTM1] | 3.15 ± 0.23 | 3.07 ± 0.55 |  | 
LAARSGAAYGPGARGEDRAGPQSP [TSPAN10] | 5.15 ± 0.22 | 4.9 ± 0.09 |  | 
LAIDFIDEGRLLLEFDLLIFSFGQ [SOAT2] | 3.35 ± 0.39 | 2.78 ± 0.57 |  | 
LARLEERSSEFYRVTTEQYQKAAE [CHCHD3] | 4.29 ± 0.27 | 4.29 ± 0.21 |  | 
LASLVSQGMIQLALSGASQPGPSG [RETREG3] | 2.89 ± 1.2 | 1.99 ± 0.66 |  | 
LDKLRNEWASHTAALTNKHSQELT [SASS6] | 3.85 ± 0.33 | 3.83 ± 0.3 |  | 
LDLFGVSMVVPLLSLHVKSLGASP [MFSD9] | 2.81 ± 0.62 | 3.02 ± 0.17 |  | 
LDQKKQDPRVQDFLQRCLESPFSR [NET1] | 3.51 ± 0.18 | 3.55 ± 0.44 |  | 
LDRLKVLMQVHASRSNNMGIVGGF [SLC25A25] | 2.25 ± 0.7 | 2.1 ± 0.36 |  | 
LEPEAAEEALENGPKESLPVIAAP [ACBD3] | 5.67 ± 0.25 | 5.64 ± 0.24 |  | 
LEPVKKSRLQLLGATCMFVASKMK [CCND1] | 2.23 ± 0.16 | 2.12 ± 0.41 |  | 
LEQIMESVKSKIGELEDESLNRAC [CEP70] | 4.47 ± 0.35 | 4.46 ± 0.36 |  | 
LFIQKEEQLQQILKRKNKQAFLDE [MNAT1] | 2.5 ± 0.47 | 2.61 ± 0.32 |  | 
LFPGRVSVDLMLGLPAQQVGPWLG [RSAD1] | 2.41 ± 0.86 | 2.32 ± 0.9 |  | 
LFPVFLATDYLRYKPVVLLQGLSL [SLC19A2] | 2.88 ± 0.41 | 2.84 ± 0.72 |  | 
LGGIGFSSCIVCLFVGLYYNVIIG [SLC6A17] |  | 3.92 ± 0.088 |  | 
LGNLVEGMDFHRFYFENALSKSNK [CAMK2D] | 2.89 ± 0.2 | 3.23 ± 0.066 |  | 
LGSVQFMEQFCWPHLRSFCETCVG | 2.39 ± 0.29 | 2.21 ± 0.41 |  | 
LGYAASLEASVQDDAGTSGGPSSP [C2CD2L] | 5.45 ± 0.34 | 5.53 ± 0.22 |  | 
LHAPPAFYSTSSGLANGLQLLCPW [VENTX] | 2.32 ± 0.1 | 2.27 ± 0.26 |  | 
LHCYRDRPHEVLLCSDLVKAYQRC [CHCHD6] | 2.16 ± 0.36 | 2.19 ± 0.24 |  | 
LHELSSRVEASHLTTSQERELGIR [FBF1] | 4.46 ± 0.17 | 4.36 ± 0.25 |  | 

Sequence | protein stability index [1] | protein stability index [2] | protein stability index (treatment: DMSO, c terminus: native) | protein stability index (treatment: MLN4924 1 uM, 8 h, c terminus: native)
LHPPVDDPQSGELPSERWNPTQNV [CDC34] | 5.02 ± 0.36 | 5.04 ± 0.32 |  | 
LHQETQLIHVYLPLTSHILRAFVN [SNX8] | 3.06 ± 0.67 | 2.86 ± 0.48 |  | 
LIGDTLLVAPVLEPGKQERDVYLP [MYORG] | 3.23 ± 0.12 | 3.03 ± 0.22 |  | 
LILSIIFIEGYCTPEEVIWEALNM [MAGEA10] | 3.32 ± 0.44 | 3.21 ± 0.79 |  | 
LKPHLEGAAFRDHQLLEPIRDFEA [TRIM29] | 3.88 ± 0.31 | 4.26 ± 0.25 |  | 
LKRSHRESQFLMAKKNFNTNLLE [HESX1] |  |  | 3.36 ± 0.24 | 3.62 ± 0.2
LKSDLEKASALNTKIRALQGSLEN [CD207] | 3.91 ± 0.26 | 3.73 ± 0.66 |  | 
LKTKDGKLPFCAMGVSSVIHPKNP [CPOX] | 3.17 ± 0.34 | 3.17 ± 0.51 |  | 
LLETNPYLLALTIIVSIVHSVFEF [CLPTM1] | 3.08 ± 0.33 | 2.69 ± 0.13 |  | 
LLFINHRLVESTSLRKAIETVYAA [MLH1] | 2.2 ± 0.24 |  |  | 
LLNSPPSFVCWSRGFMEMNGRGEL [AUP1] | 2.1 ± 0.52 | 2.07 ± 0.46 |  | 
LLPEDMALRNLPPLRAAHRRFNFD [SMG5] | 3.06 ± 0.38 | 3.2 ± 0.33 |  | 
LLQDKQFELALQLAEMKDDSDSEK [VPS39] | 5.19 ± 0.23 | 5.17 ± 0.26 |  | 
LLRAKIEVEKLKAIRLRHDLPEYN [RAD54B] | 2.69 ± 0.43 | 2.75 ± 0.49 |  | 
LLSDGSNTLSVSYKKGRMMKDISN [SLC6A17] | 3.03 ± 0.27 | 3.35 ± 0.31 |  | 
LLVYDITNRWSFDGIDRWIKEIDE [RAB40C] | 2.05 ± 0.22 | 2.18 ± 0.45 |  | 
LMCGGIAFWSLVTLGSSFIPGEHF [SPNS1] | 3.21 ± 0.64 | 3.18 ± 0.21 |  | 
LMGDESACIAYIRITQYLDAGGIP [CAMK2A] | 3.21 ± 0.89 | 2.77 ± 0.68 |  | 
LMQLQDIQYLTENIWASQSVLSAC [IQUB] | 2.67 ± 0.42 | 2.24 ± 0.37 |  | 
LPAEVAGLSQVLLRGGGQVLLGWT [POMT2] | 2.26 ± 0.54 | 2.26 ± 0.14 |  | 
LPAGPGEEWERRPQEPRPPKRATK [CPXM2] | 5.04 ± 0.53 | 5.44 ± 0.28 |  | 
LPATLVMTVPATAIYFTAYDQLKA [SLC25A39] | 3.02 ± 0.33 | 3 ± 0.51 |  | 
LPDNFTLKEDGMETVPWFPKKISD [TPH1] | 4.4 ± 0.19 | 4.3 ± 0.12 |  | 

Sequence | protein stability index [1] | protein stability index [2] | protein stability index (treatment: DMSO, c terminus: native) | protein stability index (treatment: MLN4924 1 uM, 8 h, c terminus: native)
LPERRGTCADRDNLTRRFSDLGFE [CASP6] | 3.16 ± 0.21 | 3.09 ± 0.086 |  | 
LPHDFIDSLEKTDDDKYKITLKYP [NLN] | 3.7 ± 0.3 | 3.13 ± 0.089 |  | 
LPILGHRDYKIQASRTWCFYNTED [PTGFR] | 2.41 ± 0.31 | 2.53 ± 0.33 |  | 
LPLPLSLAPPPLPLPAAAVVHVSF [ZBTB22] | 2.34 ± 0.3 | 2.15 ± 0.17 |  | 
LPSRRDVYLSPRDDGYSTKDSYSS [RBMX] | 4.11 ± 0.13 | 3.99 ± 0.42 |  | 
LQGFDQLRLEGLLCDVTLMPGDTD [KLHL13] | 3.61 ± 0.36 | 3.88 ± 0.32 |  | 
LQIDNARLAADDFRTKFETEQALR [KRT17] | 4.03 ± 0.24 | 4.27 ± 0.3 |  | 
LQKVLLMLVDGIDPNFKMEHQNKR [EHMT1] | 2.62 ± 0.73 | 2.38 ± 0.33 |  | 
LQNMGLLLDKLAKENQDIRLLQAQ [PBXIP1] | 2.82 ± 0.2 | 2.93 ± 0.35 |  | 
LQRVLQNCPWPMSCPGSSYRTVVR [EMID1] | 2.49 ± 0.27 | 2.74 ± 0.74 |  | 
LQSAAGKDAAKQIAWIKDKLLHIY [PDS5B] | 2.59 ± 0.39 | 3.09 ± 0.61 |  | 
LQTSLENGTRVQEEPELVFTLGDC [FKBP8] | 4.34 ± 0.2 | 4.77 ± 0.25 |  | 
LREENKALREENRMLSKENKILQV [CBY2] | 4.75 ± 0.12 | 4.69 ± 0.15 |  | 
LRGLCRPLRPLLGFRESDSAKPAS [C6orf223] | 3.31 ± 0.32 | 3.44 ± 0.23 |  | 
LRHLSPTPSEEHMKNKNNVTEFIL [OR4A15] | 3.27 ± 0.18 | 3.36 ± 0.12 |  | 
LRNCKTYQARKPLWFYNTSLKFFL [RHOBTB3] | 2.68 ± 0.55 | 2.84 ± 0.87 |  | 
LRRFVVRTMCAVLGLVARQEDSGL [AUP1] | 2.17 ± 0.71 | 1.91 ± 0.095 |  | 
LRTIPSPYPASKADIPSVAFSSRL [DCAF4] | 2.79 ± 0.34 | 2.94 ± 0.35 |  | 
LSAEPGWQAKREEEEEEEEEAEAG [CHGA] | 5.62 ± 0.081 | 5.4 ± 0.59 |  | 
LSCTLVPRSGEQAEGSPGGPGDSQ [CDKN1A] | 5.03 ± 0.41 | 5.05 ± 0.13 |  | 
